Patent US20080050378A1 (ONCOTHERAPY SCIENCE, published 2008)

T1: EYFP-fused KIF11 (EYFP-KIF11) (human, UniProt P52732 1-1056)
T1 construct: Expressed in COS-7 cells; not shown: EYFP from pEYFP-N1 vector
T1 sequence: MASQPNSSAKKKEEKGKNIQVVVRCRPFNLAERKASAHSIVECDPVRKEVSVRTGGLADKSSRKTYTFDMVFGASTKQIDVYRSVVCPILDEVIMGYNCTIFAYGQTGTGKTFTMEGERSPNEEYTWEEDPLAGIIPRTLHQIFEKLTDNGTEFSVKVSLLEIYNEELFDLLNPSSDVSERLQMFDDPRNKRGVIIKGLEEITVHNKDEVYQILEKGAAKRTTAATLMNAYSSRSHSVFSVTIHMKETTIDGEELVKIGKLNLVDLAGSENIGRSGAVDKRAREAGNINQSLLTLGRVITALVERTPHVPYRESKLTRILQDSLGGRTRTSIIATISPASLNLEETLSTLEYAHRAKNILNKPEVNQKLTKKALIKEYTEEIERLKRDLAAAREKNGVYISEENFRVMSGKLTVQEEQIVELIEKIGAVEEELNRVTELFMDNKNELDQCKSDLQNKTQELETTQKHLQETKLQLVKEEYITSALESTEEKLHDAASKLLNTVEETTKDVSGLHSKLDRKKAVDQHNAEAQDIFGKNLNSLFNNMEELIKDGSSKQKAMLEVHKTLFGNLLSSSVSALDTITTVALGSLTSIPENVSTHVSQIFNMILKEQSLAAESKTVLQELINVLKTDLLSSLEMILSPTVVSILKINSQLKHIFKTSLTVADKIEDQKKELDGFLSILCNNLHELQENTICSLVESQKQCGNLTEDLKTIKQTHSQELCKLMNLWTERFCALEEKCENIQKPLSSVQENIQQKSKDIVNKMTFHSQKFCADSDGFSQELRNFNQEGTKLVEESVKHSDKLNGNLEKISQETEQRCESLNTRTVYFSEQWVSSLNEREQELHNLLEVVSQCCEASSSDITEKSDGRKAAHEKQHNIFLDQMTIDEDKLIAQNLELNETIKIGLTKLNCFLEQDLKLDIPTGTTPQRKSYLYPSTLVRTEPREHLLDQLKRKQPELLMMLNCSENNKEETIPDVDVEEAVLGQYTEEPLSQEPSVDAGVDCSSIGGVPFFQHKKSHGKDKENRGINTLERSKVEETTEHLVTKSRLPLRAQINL

B1: endogenous KIF11 (kinesin family member 11) (other)
chain: T1 sequence
notes: Endogenous protein in cell extracts; GenBank NM-004523 printed for the gene; also called EG5
B2: FLAG- and HA-tagged KOC1 (pCAGGS-n3FH-KOC1; NH2-terminal FLAG, COOH-terminal HA) (other)
chain: MNKLYIGNLSENAAPSDLESIFKDAKIPVSGPFLVKTGYAFVDCPDESWALKAIEALSGKIELHGKPIEVEHSVPKRQRIRKLQIRNIPPHLQWEVLDSLLVQYGVVESCEQVNTDSETAVVNVTYSSKDQARQALDKLNGFQLENFTLKVAYIPDEMAAQQNPLQQPRGRRGLGQRGSSRQGSPGSVSKQKPCDLPLRLLVPTQFVGAIIGKEGATIRNITKQTQSKIDVHRKENAGAAEKSITILSTPEGTSAACKSILEIMHKEAQDIKFTEEIPLKILAHNNFVGRLIGKEGRNLKKIEQDTDTKITISPLQELTLYNPERTITVKGNVETCAKAEEEIMKKIRESYENDIASMNLQAHLIPGLNLNALGLFPPTSGMPPPTSGPPSAMTPPYPQFEQSETETVHLFIPALSVGAIIGKQGQHIKQLSRFAGASIKIAPAEAPDAKVRMVIITGPPEAQFKAQGRIYGKIKEENFVSPKEEVKLEAHIRVPSFAAGRVIGKGGKTVNELQNLSSAEVVVPRDQTPDENDQVVVKITGHFYACQVAQRKIQEILTQVKQHQQQKALQSGPPQSRRK
notes: also called pCAGGS-FLAG-tagged-KOC1; full length KOC1 construct; not shown: N-terminal FLAG tag; C-terminal HA tag
B3: ECFP-fused KOC1 (ECFP-KOC1) (other)
chain: B2 chain
notes: Expressed in COS-7 cells; not shown: ECFP from pECFP-N1 vector
B4: endogenous KOC1 (KH domain containing protein over-expressed in cancer) (other)
chain: B2 chain
notes: Endogenous protein in cell extracts; GenBank NM-006547 printed for the gene; also called IMP-3
B5: KOC1DEL2 (KOC1 deletion mutant 2; 2xRRM+2xKH, N-terminal FLAG, C-terminal HA) (other)
chain: MNKLYIGNLSENAAPSDLESIFKDAKIPVSGPFLVKTGYAFVDCPDESWALKAIEALSGKIELHGKPIEVEHSVPKRQRIRKLQIRNIPPHLQWEVLDSLLVQYGVVESCEQVNTDSETAVVNVTYSSKDQARQALDKLNGFQLENFTLKVAYIPDEMAAQQNPLQQPRGRRGLGQRGSSRQGSPGSVSKQKPCDLPLRLLVPTQFVGAIIGKEGATIRNITKQTQSKIDVHRKENAGAAEKSITILSTPEGTSAACKSILEIMHKEAQDIKFTEEIPLKILAHNNFVGRLIGKEGRNLKKIEQDTDTKITISPLQELTLYNPERTITVKGNVETCAKAEEEIMKKIRESYENDIASMNLQAHLIPGLNLNALGLFPPTSGMPPPTSGPPSAMTPPYPQFEQSETE
notes: Lacks the C-terminal two KH domains; not shown: N-terminal FLAG tag; C-terminal HA tag
B6: KOC1DEL3 (KOC1 deletion mutant 3; 2xRRM without KH, N-terminal FLAG, C-terminal HA) (other)
chain: MNKLYIGNLSENAAPSDLESIFKDAKIPVSGPFLVKTGYAFVDCPDESWALKAIEALSGKIELHGKPIEVEHSVPKRQRIRKLQIRNIPPHLQWEVLDSLLVQYGVVESCEQVNTDSETAVVNVTYSSKDQARQALDKLNGFQLENFTLKVAYIPDEMAAQQNPLQQPRGRRGLGQRGSSRQGSPGSVSKQKPCDLP
notes: Contains the two RRMs and lacks the four KH domains; also called the RRM domains; not shown: N-terminal FLAG tag; C-terminal HA tag

Assays:
[1] = target: dynactin 1 (DCTN1; p150, glued homolog, Drosophila), endogenous (human, UniProt Q14203 1-1278, limits assumed); assay: immunoprecipitation with anti-KIF11 polyclonal and anti-DCTN1 monoclonal antibody; 150-kDa partner first identified by MALDI-TOF from LC319 lysate
dynactin 1 (DCTN1; p150, glued homolog, Drosophila), endogenous, sequence (Q14203 whole entry): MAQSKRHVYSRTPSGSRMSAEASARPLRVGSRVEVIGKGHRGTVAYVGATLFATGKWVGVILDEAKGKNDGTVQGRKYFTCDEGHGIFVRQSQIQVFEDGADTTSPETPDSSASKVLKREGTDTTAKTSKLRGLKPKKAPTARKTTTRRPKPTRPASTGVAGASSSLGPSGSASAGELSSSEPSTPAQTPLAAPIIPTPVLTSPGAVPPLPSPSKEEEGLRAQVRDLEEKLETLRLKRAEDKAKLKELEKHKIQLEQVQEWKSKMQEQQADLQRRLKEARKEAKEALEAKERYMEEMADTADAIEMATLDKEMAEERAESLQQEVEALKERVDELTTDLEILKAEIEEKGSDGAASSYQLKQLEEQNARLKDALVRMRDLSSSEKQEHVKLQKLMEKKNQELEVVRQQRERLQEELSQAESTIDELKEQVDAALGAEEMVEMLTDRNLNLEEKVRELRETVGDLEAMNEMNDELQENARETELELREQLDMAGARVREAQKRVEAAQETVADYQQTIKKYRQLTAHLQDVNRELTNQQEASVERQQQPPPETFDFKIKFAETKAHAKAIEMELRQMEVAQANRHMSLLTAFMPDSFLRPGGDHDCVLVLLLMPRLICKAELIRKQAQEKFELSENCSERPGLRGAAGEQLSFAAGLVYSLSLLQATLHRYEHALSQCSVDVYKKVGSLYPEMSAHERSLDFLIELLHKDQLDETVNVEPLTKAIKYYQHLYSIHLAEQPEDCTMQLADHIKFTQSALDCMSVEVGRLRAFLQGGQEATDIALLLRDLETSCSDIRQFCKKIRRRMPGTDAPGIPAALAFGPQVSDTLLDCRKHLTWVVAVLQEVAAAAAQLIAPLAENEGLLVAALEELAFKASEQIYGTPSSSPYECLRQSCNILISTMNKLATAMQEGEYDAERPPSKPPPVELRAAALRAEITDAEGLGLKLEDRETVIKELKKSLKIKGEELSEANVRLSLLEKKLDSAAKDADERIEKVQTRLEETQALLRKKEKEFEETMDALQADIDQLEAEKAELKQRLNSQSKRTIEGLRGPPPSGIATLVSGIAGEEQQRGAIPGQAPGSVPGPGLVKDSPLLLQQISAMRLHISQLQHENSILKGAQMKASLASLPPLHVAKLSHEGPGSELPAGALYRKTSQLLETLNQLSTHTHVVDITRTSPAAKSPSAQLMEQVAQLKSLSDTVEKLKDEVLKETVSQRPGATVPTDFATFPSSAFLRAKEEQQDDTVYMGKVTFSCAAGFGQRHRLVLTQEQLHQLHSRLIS

[2] = target: B1; assay: anti-Flag and anti-HA immunoprecipitation from transfected LC319 cells, silver stain, MALDI-TOF
Description: Cells were extracted in IP-buffer (0.5% NP-40, 50 mM Tris-HCl, 150 mM NaCl, and protease inhibitor) for 30 min on ice. Extracts were centrifuged at 14,000 rpm for 15 min, and supernatants were subjected to immunoprecipitation using anti-Flag M2 agarose (Sigma-Aldrich) and anti-HA beads (Sigma-Aldrich) for 1-2 hours. The beads were washed six times with IP-buffer, and protein was eluted by boiling the beads in Laemmli sample buffer after removing the final wash fraction. The eluted protein was resolved by SDS-PAGE and stained with silver staining. A 125 kDa-band was extracted by gel extraction, and used for mass spectrometric sequencing using MALDI-TOF mass spectrometry.

[3] = target: T1, EYFP-fused KIF11 (EYFP-KIF11); assay: live-cell fluorescence microscopy of co-transfected COS-7 cells (co-localised particles)
[4] = target: B1; assay: reciprocal immunoprecipitation with anti-KOC1 and anti-KIF11 polyclonal antibodies, western blot
[5] = target: B1; assay: immunoprecipitation from transfected A549 cells
[6] = target: B1; assay: immunoprecipitation from transfected LC319 cells

B1
binding result [1]: binds

B2
binding result [2]: binds

B3
binding result [3]: binds

B4
binding result [4]: binds

B5
binding result [5]: binds

B6
binding result [6]: binds
